# Experimental data taken from US20190345535.
# Values joined by “and” are separate entries in the source; they are usually repeats but may differ in a detail not shown here. Equal values may be shown once.
# B1: human plasmin (Sigma) (protein)
# chain: KVYLSECKTGNGKNYRGTMSKTKNGITCQKWSSTSPHRPRFSPATHPSEGLEENYCRNPDNDPQGPWCYTTDPEKRYDYCDILECEEECMHCSGENYDGKISKTMSGLECQAWDSQSPHAHGYIPSKFPNKNLKKNYCRNPDRELRPWCFTTDPNKRWELCDIPRCTTPPPSSGPTYQCLKGTGENYRGNVAVTVSGHTCQHWSAQTPHTHNRTPENFPCKNLDENYCRNPDGKRAPWCHTTNSQVRWEYCKIPSCDSSPVSTEQLAPTAPPELTPVVQDCYHGDGQSYRGTSSTTTTGKKCQSWSSMTPHRHQKTPENYPNAGLTMNYCRNPDADKGPWCFTTDPSVRWEYCNLKKCSGTEASVVAPPPVVLLPDVETPSEEDCMFGNGKGYRGKRATTVTGTPCQDWAAQEPHRHSIFTPETNPRAGLEKNYCRNPDGDVGGPWCYTTNPRKLYDYCDVPQCAAPSFDCGKPQVEPKKCPGRVVGGCVAHPHSWPWQVSLRTRFGMHFCGGTLISPEWVLTAAHCLEKSPRPSSYKVILGAHQEVNLEPHVQEIEVSRLFLEPTRKDIALLKLSSPAVITDKVIPACLPSPNYVVADRTECFITGWGETQGTFGAGLLKEAQLPVIENKVCNRYEFLNGRVQSTELCAGHLAGGTDSCQGDSGGPLVCFEKDKYILQGVTSWGLGCARPNKPGVYVRVSRFVTWIEGVMRNN
# B2: bovine plasmin (Sigma) (protein)
# chain: RIYLLECKTGNGQTYRGTTAETKSGVTCQKWSATSPHVPKFSPEKFPLAGLEENYCRNPDNDENGPWCYTTDPDKRYDYCDIPECEDKCMHCSGENYEGKIAKTMSGRDCQAWDSQSPHAHGYIPSKFPNKNLKMNYCRNPDGEPRPWCFTTDPQKRWEFCDIPRCTTPPPSSGPKYQCLKGTGKNYGGTVAVTESGHTCQRWSEQTPHKHNRTPENFPCKNLEENYCRNPNGEKAPWCYTTNSEVRWEYCTIPSCESSPLSTERMDVPVPPEQTPVPQDCYHGNGQSYRGTSSTTITGRKCQSWSSMTPHRHLKTPENYPNAGLTMNYCRNPDADKSPWCYTTDPRVRWEFCNLKKCSETPEQVPAAPQAPGVENPPEADCMIGTGKSYRGKKATTVAGVPCQEWAAQEPHQHSIFTPETNPQSGLERNYCRNPDGDVNGPWCYTMNPRKPFDYCDVPQCESSFDCGKPKVEPKKCSGRIVGGCVSKPHSWPWQVSLRRSSRHFCGGTLISPKWVLTAAHCLDNILALSFYKVILGAHNEKVREQSVQEIPVSRLFREPSQADIALLKLSRPAIITKEVIPACLPPPNYMVAARTECYITGWGETQGTFGEGLLKEAHLPVIENKVCNRNEYLDGRVKPTELCAGHLIGGTDSCQGDSGGPLVCFEKDKYILQGVTSWGLGCARPNKPGVYVRVSPYVPWIEETMRRN
# Key:
# [1] = biological target: GFP^2-Pflu3-RLuc2 fusion protein (Pflu sensor 3)
# [2] = biological target: GFP^2-plas1-RLuc2 fusion protein (BRET^2 plasmin sensor)
# [3] = biological target: GFP^2-Pflu-H4-RLuc2 fusion protein
# [4] = biological target: GFP^2-Pflu-H1-RLuc2 fusion protein
# [5] = biological target: GFP^2-Pflu-H3-RLuc2 fusion protein
# [6] = biological target: GFP^2-Pflu-H2-RLuc2 fusion protein
Protein,"Linear range (10%-90% BRET^2 response), 50% full fat UHT milk [1]","Linear response, BRET^2, raw milk, one-step pre-treatment protocol [2]","Linear response, BRET^2, raw milk, one-step pre-treatment with low power sonication [2]","Plasmin response (%), BRET^2, 1 nM Bovine plasmin in UHT milk [3]","Plasmin response (%), BRET^2, 1 nM Bovine plasmin in UHT milk [4]","Plasmin response (%), BRET^2, 1 nM Bovine plasmin in UHT milk [5]","Plasmin response (%), BRET^2, 1 nM Bovine plasmin in UHT milk [6]"
B1,452 nM and 3620 nM,between 1.6 nM (90%) and 128 nM (10%) plasmin,linear between 5.5 nM (90%) and 107 nM (10%),,,,
B2,,,,6.3%,4.9%,0.9%,7.9%
